Values of other authors as cited in publication PMC3889014.

Biological target: Cys145 (UniProt position 145, PILIPCHRVVC)

For “O6-alkylguanine DNA-alkyltransferase (AGT; MGMT) (Homo sapiens (inferred; not stated in the sentence with the pKa))”, the pKa is given as 4–5.
